Assay results as given in patent publication US20220363757A1 (SYMPHOGEN A S, published 2022).

T1: human LAG-3 domain 1-2 Fc fusion, point mutation #18 P67A (human, UniProt P18627 23-266)
T1 construct: not shown: human IgG1 Fc, AA P101-K330
T1 sequence: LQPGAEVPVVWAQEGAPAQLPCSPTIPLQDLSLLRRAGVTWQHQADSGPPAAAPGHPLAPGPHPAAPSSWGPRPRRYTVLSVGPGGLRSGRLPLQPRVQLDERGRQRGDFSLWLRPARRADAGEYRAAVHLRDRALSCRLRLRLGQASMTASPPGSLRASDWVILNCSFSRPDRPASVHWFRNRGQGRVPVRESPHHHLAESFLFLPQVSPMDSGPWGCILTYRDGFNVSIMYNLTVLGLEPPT

T2: human LAG-3 domain 1-2 Fc fusion, point mutation #51 G107A (human, UniProt P18627 23-266)
T2 construct: not shown: human IgG1 Fc, AA P101-K330
T2 sequence: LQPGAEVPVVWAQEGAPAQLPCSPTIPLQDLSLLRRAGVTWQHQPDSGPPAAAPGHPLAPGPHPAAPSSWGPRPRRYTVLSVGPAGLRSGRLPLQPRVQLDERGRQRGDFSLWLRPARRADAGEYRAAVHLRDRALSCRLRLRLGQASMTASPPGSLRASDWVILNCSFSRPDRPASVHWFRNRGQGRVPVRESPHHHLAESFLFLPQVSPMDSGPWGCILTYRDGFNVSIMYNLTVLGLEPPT

T3: human LAG-3 domain 1-2 Fc fusion, point mutation #59 Q117A (human, UniProt P18627 23-266)
T3 construct: not shown: human IgG1 Fc, AA P101-K330
T3 sequence: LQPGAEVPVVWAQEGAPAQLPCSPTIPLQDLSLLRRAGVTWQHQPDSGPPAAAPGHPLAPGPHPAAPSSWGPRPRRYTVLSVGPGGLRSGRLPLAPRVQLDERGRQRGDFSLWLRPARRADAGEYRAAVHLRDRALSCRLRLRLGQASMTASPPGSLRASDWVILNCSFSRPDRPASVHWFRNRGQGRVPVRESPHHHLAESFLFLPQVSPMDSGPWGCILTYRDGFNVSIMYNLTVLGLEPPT

T4: human LAG-3 domain 1-2 Fc fusion, point mutation #8 Q51A (human, UniProt P18627 23-266)
T4 construct: not shown: human IgG1 Fc, AA P101-K330
T4 sequence: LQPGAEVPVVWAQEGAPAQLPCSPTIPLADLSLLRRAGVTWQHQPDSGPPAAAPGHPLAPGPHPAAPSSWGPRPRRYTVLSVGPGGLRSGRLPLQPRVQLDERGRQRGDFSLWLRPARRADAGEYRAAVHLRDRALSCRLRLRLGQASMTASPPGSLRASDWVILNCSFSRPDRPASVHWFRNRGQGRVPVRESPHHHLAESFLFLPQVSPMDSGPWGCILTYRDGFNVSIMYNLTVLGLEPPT

T5: human LAG-3 domain 1-2 Fc fusion, point mutation #14 T62A (human, UniProt P18627 23-266)
T5 construct: not shown: human IgG1 Fc, AA P101-K330
T5 sequence: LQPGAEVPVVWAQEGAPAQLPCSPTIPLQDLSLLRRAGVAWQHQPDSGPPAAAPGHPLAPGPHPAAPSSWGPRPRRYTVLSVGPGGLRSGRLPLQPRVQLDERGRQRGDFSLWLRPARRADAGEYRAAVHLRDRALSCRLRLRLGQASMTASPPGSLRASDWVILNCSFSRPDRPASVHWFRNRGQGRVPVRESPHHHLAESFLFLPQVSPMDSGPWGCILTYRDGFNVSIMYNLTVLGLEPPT

T6: human LAG-3 domain 1-2 Fc fusion, point mutation #61 R119A (human, UniProt P18627 23-266)
T6 construct: not shown: human IgG1 Fc, AA P101-K330
T6 sequence: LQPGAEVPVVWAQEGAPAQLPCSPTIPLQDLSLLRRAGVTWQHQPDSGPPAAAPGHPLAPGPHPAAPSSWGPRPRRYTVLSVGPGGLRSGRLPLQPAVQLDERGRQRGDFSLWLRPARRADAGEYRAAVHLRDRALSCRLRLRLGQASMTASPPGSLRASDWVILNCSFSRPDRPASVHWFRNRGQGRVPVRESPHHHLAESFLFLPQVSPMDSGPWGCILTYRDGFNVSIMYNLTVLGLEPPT

T7: human LAG-3 domain 1-2 Fc fusion, point mutation #69 R129A (human, UniProt P18627 23-266)
T7 construct: not shown: human IgG1 Fc, AA P101-K330
T7 sequence: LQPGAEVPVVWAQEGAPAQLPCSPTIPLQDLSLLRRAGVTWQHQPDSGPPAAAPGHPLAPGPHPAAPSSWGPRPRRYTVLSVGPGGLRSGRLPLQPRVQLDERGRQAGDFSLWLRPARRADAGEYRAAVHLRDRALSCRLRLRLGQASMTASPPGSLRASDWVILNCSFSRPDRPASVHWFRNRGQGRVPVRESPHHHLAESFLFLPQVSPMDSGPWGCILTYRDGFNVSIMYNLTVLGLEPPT

T8: human LAG-3 domain 1-2 Fc fusion, point mutation #67 R127A (human, UniProt P18627 23-266)
T8 construct: not shown: human IgG1 Fc, AA P101-K330
T8 sequence: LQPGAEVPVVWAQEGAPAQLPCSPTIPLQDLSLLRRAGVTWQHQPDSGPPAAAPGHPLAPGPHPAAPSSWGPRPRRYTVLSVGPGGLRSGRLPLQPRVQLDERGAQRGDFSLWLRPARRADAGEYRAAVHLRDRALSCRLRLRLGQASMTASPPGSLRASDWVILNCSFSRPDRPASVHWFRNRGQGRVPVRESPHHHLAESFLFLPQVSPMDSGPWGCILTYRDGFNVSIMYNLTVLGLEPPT

T9: human LAG-3 domain 1-2 Fc fusion, point mutation #80 R163A (human, UniProt P18627 23-266)
T9 construct: not shown: human IgG1 Fc, AA P101-K330
T9 sequence: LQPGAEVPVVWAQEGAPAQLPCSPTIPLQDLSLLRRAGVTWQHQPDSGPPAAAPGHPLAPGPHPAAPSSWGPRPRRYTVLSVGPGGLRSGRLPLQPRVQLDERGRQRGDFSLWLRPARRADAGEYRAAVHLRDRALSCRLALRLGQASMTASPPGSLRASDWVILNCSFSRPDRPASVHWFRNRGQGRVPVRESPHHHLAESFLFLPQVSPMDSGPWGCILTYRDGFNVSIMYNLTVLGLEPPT


Legend:
Test in all cases: SPR, Fab over captured mutant LAG-3-Fc;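 note: fc fusion variants captured on anti-human IgG Fc sensor, Fab injected with association then dissociation phases, KD obtained from Langmuir one-to-one fit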
[1] = molecular target: T1, human LAG-3 domain 1-2 Fc fusion, point …
[2] = molecular target: T2, human LAG-3 domain 1-2 Fc fusion, point …
[3] = molecular target: T3, human LAG-3 domain 1-2 Fc fusion, point …
[4] = molecular target: T4, human LAG-3 domain 1-2 Fc fusion, point …
[5] = molecular target: T5, human LAG-3 domain 1-2 Fc fusion, point …
[6] = molecular target: T6, human LAG-3 domain 1-2 Fc fusion, point …
[7] = molecular target: T7, human LAG-3 domain 1-2 Fc fusion, point …
[8] = molecular target: T8, human LAG-3 domain 1-2 Fc fusion, point …
[9] = molecular target: T9, human LAG-3 domain 1-2 Fc fusion, point …

| binding result [1] | binding result [2] | KD mutant/KD wild type [3] | KD mutant/KD wild type [4] | binding result [5] | binding result [6] | binding result [7] | KD mutant/KD wild type [8] | binding result [9] | KD mutant/KD wild type [1] | KD mutant/KD wild type [2] | KD mutant/KD wild type [5] | KD mutant/KD wild type [6] | KD mutant/KD wild type [7] | KD mutant/KD wild type [9] | Binder |
| --- | --- | --- | --- | --- | --- | --- | --- | --- | --- | --- | --- | --- | --- | --- | --- |
| no binding (tested: 300 nM) | no binding (tested: 300 nM) | 0.5 fold | 0.6 fold | no binding (tested: 300 nM) | no binding (tested: 300 nM) | no binding (tested: 300 nM) | 0.5 fold | no binding (tested: 300 nM) |  |  |  |  |  |  | Fab fragment of antibody 15572 (Fab, V domains shown, not shown: a dimerising Fc or GST, monomeric Fab made by GingisKHAN digestion of the IgG1) VH: QLQLQESGPGLVKPSETLSLTCTVSGDSISSSSYYWGWIRQPPGKGLEWIGSIFYSGNTYYNPSLKSRVTISVDTSKNQFSLKLSSVTAADTAVYYCAREDDFLTDYYGAFDIWGQGTMVTVSS VL: not shown |
|  |  | 0.8 fold | 0.9 fold |  |  |  | 0.6 fold |  | 3.8 fold | 2.1 fold | 4.2 fold | 3.2 fold | 3 fold | 2.5 fold | Fab fragment of antibody 15532 (Fab, V domains shown, not shown: a dimerising Fc or GST, monomeric Fab made by GingisKHAN digestion of the IgG1) VH: QVQLQQWGAGLLRPSETLSLTCAVYGESFSGYYWNWIRQPPGKGLEWIGEINHSGSTNYNPSLKSRVTISVDTSKTQFSLKLSSVTAADTAVYYCARGWDLLDWNDYWNEYWGQGTLVTVSS VL: EIVLTQSPATLSLSPGERATLSCRASQSVSSYLAWYQQKPGQAPRLLIYDASNRATGIPARFSGSGSGTDFTLTISSLEPEDFAVYYCQQRSNWPLTFGGGTKVEIKR |
| no binding (tested: 300 nM) | no binding (tested: 300 nM) | 0.4 fold | 0.7 fold | no binding (tested: 300 nM) | no binding (tested: 300 nM) | no binding (tested: 300 nM) | 0.9 fold | no binding (tested: 300 nM) |  |  |  |  |  |  | Fab fragment of antibody 15431 (Fab, V domains shown, not shown: a dimerising Fc or GST, monomeric Fab made by GingisKHAN digestion of the IgG1) VH: QVQLQQSGPGLVKPSQTLSLTCAISGDSVSSNSAAWNWIRQSPSRGLEWLGRTYYRSKWYNDYAVSVKSRITINPDTSKNQFSLQLNSVTPEDTAVYYCARDDDWNDFDYWGQGTLVTVSS VL: EIVLTQSPATLSLSPGERATLSCRASQSVSSYLAWYQQKPGQAPRLLIYDASNRATGIPARFSGSGSGTDFTLTISSLEPEDFAVYYCQQRSNWPLTFGGGTKVEIKR |
|  |  | 0.7 fold | 0.8 fold |  |  |  | 0.9 fold |  | 0.6 fold | 5.7 fold | 0.6 fold | 0.6 fold | 0.7 fold | 0.6 fold | Fab fragment of antibody 15011 (Fab, V domains shown, not shown: a dimerising Fc or GST, monomeric Fab made by GingisKHAN digestion of the IgG1) VH: EVQLLESGGGLVQPGGSLRLSCAASGFDFRSYAMMWVRQAPGKGLEWVGGINGEVGGSNTYYAPAVKGRATISRDNSKNTLYLQMNSLRAEDTAVYYCVKGAGACGICNDDIDAWGQGTLVTVSS VL: SYELTQDPAVSVALGQTVRITCSGAGSYAGSYYYGWHQQKPGQAPVTVIYDNDKRPSNIPDRFSGSSSGNTASLTITGAQAEDEADYYCGSTNDNDDGGLFGSGTKVTVLG |
